Data published in US20220332804A1 (CSL INNOVATION, published 2022).

Assays:
Assay in all cases: SPR; KD relative to WT C2;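 note: biacore SPR at 37 °C, anti-C2 mAbs captured on an anti-human IgG chip, alanine or serine C2 surface mutants tested, KD from 1:1 fit compared with wild-type C2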
[1] = target: T1, human C2 K457A (human, UniProt P06681 21-752)
T1 sequence: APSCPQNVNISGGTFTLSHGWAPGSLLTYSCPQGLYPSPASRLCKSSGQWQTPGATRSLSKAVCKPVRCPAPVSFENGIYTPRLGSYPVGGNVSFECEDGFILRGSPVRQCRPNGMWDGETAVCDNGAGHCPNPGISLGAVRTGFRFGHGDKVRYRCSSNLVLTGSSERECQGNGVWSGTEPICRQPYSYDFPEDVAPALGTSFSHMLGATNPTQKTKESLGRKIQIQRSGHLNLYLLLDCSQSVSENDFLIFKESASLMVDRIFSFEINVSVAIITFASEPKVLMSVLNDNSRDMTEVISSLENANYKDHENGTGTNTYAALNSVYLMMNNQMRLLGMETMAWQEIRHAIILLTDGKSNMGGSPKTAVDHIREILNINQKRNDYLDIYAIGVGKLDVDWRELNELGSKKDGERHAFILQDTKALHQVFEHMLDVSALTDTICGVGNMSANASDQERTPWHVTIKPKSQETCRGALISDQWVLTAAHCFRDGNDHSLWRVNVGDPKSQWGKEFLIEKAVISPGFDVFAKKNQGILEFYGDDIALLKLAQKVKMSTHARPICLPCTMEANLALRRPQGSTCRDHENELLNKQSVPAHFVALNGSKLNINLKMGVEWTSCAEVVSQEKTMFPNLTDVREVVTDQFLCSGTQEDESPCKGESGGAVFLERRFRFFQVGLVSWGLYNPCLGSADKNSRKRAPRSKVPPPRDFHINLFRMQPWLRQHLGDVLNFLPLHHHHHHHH

[2] = target: T2, human C2 R519A (human, UniProt P06681 21-752)
T2 sequence: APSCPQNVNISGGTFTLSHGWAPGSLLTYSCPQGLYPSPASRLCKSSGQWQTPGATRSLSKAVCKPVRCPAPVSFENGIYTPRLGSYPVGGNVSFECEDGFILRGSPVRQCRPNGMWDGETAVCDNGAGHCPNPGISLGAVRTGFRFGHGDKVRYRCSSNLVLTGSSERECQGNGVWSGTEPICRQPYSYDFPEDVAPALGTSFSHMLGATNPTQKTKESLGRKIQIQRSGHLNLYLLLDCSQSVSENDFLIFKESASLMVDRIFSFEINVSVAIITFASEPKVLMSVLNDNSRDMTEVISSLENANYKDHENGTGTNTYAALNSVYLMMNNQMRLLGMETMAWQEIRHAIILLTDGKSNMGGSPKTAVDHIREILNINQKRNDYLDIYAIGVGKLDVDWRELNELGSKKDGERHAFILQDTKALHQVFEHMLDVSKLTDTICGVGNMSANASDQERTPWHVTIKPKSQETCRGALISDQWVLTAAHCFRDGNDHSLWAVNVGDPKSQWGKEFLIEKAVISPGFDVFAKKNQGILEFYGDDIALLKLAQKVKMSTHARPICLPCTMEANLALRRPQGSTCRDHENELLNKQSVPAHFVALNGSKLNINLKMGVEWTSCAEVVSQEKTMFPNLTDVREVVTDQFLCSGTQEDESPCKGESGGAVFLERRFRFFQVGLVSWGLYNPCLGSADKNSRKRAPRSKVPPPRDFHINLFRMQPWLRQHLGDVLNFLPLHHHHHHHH

[3] = target: T3, human C2 A470S (human, UniProt P06681 21-752)
T3 sequence: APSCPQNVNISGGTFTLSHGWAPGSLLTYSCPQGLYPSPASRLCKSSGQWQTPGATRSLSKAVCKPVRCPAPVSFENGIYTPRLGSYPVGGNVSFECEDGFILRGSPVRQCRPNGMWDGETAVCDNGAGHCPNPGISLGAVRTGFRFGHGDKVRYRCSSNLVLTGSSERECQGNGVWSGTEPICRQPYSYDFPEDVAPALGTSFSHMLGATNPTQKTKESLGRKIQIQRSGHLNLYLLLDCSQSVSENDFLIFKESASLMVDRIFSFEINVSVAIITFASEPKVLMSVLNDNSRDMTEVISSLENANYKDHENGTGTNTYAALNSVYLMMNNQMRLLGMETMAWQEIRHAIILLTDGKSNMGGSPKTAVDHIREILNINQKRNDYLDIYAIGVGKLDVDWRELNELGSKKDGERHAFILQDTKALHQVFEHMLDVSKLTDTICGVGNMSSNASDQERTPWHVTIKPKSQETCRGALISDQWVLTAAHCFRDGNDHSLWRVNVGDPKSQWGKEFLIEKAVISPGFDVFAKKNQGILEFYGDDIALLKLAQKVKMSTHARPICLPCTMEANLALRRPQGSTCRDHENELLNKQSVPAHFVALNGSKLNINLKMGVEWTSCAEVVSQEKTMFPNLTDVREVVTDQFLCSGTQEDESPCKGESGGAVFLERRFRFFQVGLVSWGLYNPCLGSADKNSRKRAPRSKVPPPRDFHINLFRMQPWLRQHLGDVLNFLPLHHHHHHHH

[4] = target: T4, human C2 D454A (human, UniProt P06681 21-752)
T4 sequence: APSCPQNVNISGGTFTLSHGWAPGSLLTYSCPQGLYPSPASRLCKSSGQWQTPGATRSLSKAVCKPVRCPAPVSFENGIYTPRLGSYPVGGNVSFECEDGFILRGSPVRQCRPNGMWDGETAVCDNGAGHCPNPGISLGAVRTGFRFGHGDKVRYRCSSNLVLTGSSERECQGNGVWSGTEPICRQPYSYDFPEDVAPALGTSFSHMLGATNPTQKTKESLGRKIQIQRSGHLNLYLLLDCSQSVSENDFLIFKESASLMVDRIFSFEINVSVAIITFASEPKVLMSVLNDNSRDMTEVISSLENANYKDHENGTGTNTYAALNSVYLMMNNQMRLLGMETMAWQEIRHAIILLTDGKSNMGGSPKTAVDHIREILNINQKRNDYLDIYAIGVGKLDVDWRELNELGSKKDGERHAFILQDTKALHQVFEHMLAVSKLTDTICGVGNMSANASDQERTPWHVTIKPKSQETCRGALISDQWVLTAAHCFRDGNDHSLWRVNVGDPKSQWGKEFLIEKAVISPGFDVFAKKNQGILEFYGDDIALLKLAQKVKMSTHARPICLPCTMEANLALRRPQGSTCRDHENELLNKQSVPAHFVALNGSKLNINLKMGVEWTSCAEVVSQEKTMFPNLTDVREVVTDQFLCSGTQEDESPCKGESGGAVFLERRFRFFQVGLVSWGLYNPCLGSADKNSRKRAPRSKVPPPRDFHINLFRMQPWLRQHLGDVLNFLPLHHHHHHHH

Fold diff [1]: 1 fold
Fold diff [2]: 1 fold
Fold diff [3]: 1 fold
Fold diff [4]: 4 fold
B1: RF16-214 (antibody, V domains shown)
VH: EVQLLESGGGLVQPGGSLRLSCAASGFTFSWYQMMWVRQAPGKGLEWVSRIYPSGGGTAYADSVKGRFTISRDNSKNTLYLQMNSLRAEDTAVYYCARDAGYGDNWGQGTLVTVSS
VL: QSALTQPPSVSVSPGQTASITCSGDKLGEKYASWYQQKAGQSPVMVIYQDRKRPSGIPERFSGSNSGNTATLTISGTQAMDEADYYCQAWDTRAVVFGGGTKLTVLG
